Data reported in patent US20250376507A1, “NOVEL TUMOR ANTIGEN-TARGETING ANTICANCER AGENT” (INDUSTRY FOUNDATION OF CHONNAM NATIONAL UNIVERSITY, priority 2022, published 2025).

B1: CRT4LP: PASylated L-ASNase fused with CRT-targeting CRT4 monobody at N-terminus and PAS200 tag plus His6 tag at C-terminus (protein)
chain: MASVSDVPRDLEVVAATPTSLLISWGQPMYGQPMYYYRITYGETGGNSPVQEFTVPGSKSTATISGLKPGVDYTITVYAVTKLGFFKRPISINYRTSGGGGSGGGGSEFLPNITILATGGTIAGGGDSATKSNYTAGKVGVENLVNAVPQLKDIANVKGEQVVNIGSQDMNDDVWLTLAKKINTDCDKTDGFVITHGTDTMEETAYFLDLTVKCDKPVVMVGAMRPSTSMSADGPFNLYNAVVTAADKASANRGVLVVMNDTVLDGRDVTKTNTTDVATFKSVNYGPLGYIHNGKIDYQRTPARKHTSDTPFDVSKLNELPKVGIVYNYANASDLPAKALVDAGYDGIVSAGVGNGNLYKTVFDTLATAAKNGTAVVRSSRVPTGATTQDVEVDDAKYGFVASGTLNPQKARVLLQLALTQTKDPQQIQQIFNQYGSSGGGGSGGGGSASPAAPAPASPAAPAPSAPAASPAAPAPASPAAPAPSAPAASPAAPAPASPAAPAPSAPAASPAAPAPASPAAPAPSAPAASPAAPAPASPAAPAPSAPAASPAAPAPASPAAPAPSAPAASPAAPAPASPAAPAPSAPAASPAAPAPASPAAPAPSAPAASPAAPAPASPAAPAPSAPAASPAAPAPASPAAPAPSAPAAGSHHHHHH
B2: CRT3LP: PASylated L-ASNase fused with CRT-targeting CRT3 monobody at N-terminus and PAS200 tag plus His6 tag at C-terminus (protein)
chain: MASVSDVPRDLEVVAATPTSLLISWKLGFFKRYYRITYGETGGNSPVQEFTVPGSKSTATISGLKPGVDYTITVYAVTGQPMYGQPMYPISINYRTSGGGGSGGGGSEFLPNITILATGGTIAGGGDSATKSNYTAGKVGVENLVNAVPQLKDIANVKGEQVVNIGSQDMNDDVWLTLAKKINTDCDKTDGFVITHGTDTMEETAYFLDLTVKCDKPVVMVGAMRPSTSMSADGPFNLYNAVVTAADKASANRGVLVVMNDTVLDGRDVTKTNTTDVATFKSVNYGPLGYIHNGKIDYQRTPARKHTSDTPFDVSKLNELPKVGIVYNYANASDLPAKALVDAGYDGIVSAGVGNGNLYKTVFDTLATAAKNGTAVVRSSRVPTGATTQDVEVDDAKYGFVASGTLNPQKARVLLQLALTQTKDPQQIQQIFNQYGSSGGGGSGGGGSASPAAPAPASPAAPAPSAPAASPAAPAPASPAAPAPSAPAASPAAPAPASPAAPAPSAPAASPAAPAPASPAAPAPSAPAASPAAPAPASPAAPAPSAPAASPAAPAPASPAAPAPSAPAASPAAPAPASPAAPAPSAPAASPAAPAPASPAAPAPSAPAASPAAPAPASPAAPAPSAPAASPAAPAPASPAAPAPSAPAAGSHHHHHH

Key:
[1] = molecular target: T1, ecto-CRT on MC-38 cells (Mus musculus, UniProt P14211); assay: Confocal immunofluorescence staining of MC-38 cells; type: cell-based; set-up: endogenous in cells; host or cells: CT-26 and MC-38 mouse colon cancer cells (in culture, or CT-26 tumors in mice)
T1 sequence (P14211 18-416): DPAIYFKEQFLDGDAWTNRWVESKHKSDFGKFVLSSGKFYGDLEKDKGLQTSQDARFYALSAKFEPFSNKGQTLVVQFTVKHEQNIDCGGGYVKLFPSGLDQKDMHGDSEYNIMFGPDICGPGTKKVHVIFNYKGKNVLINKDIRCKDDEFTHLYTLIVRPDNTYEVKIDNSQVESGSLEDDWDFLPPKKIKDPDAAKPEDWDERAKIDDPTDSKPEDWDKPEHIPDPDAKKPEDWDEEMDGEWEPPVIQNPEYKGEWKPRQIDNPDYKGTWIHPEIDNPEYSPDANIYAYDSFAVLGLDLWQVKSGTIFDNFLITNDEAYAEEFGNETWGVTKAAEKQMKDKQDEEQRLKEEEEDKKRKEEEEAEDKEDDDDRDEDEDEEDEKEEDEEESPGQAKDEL
Experimental: PASylated CRT-targeted L-ASNases bound to ecto-CRT on cells were visualized by confocal immunofluorescence microscopy with reference to the prior art (Y. Zhang, et al., Cancers, 13(11), 2801, 2021). After overnight incubation in a cover-glass, CT-26 and MC-38 cells (104) were treated with anticancer agents for 4 h at 37° C. The cells were then fixed with 1% PFA for 15 min, stained with 100 nM PASylated recombinant proteins for 1 h on ice, and treated with anti-His tagged monobodies (diluted to 1:1000) and Alexa Fluor 488-conjugated secondary antibody for 1 h (5 μg/mL). Cell membranes were stained with Alexa Fluor 555-conjugated wheat germ agglutinin (WGA) (diluted to 1:5000). Between each step, samples were washed with cold T-PBS. Finally, the cells were incubated with 4′,6-diamidino-2-phenylindole (DAPI) (Thermo Fisher Scientific, USA) to stain the nuclei. Immunofluorescence signals were imaged using an LSM510 confocal microscope (ZEISS, Jena, Germany) and data were analyzed with ZEN-LSM imaging software (ZEISS, Jena, Germany).

[2] = molecular target: T2, recombinant calreticulin protein (rCRT) (Homo sapiens, UniProt P27797); assay: Binding affinity of recombinant proteins for CRT by ELISA; conditions: for Kd: ELISA, read-out: dissociation constant (Kd) for CRT; for affinity for CRT relative to single CRT3/CRT4 monobody: compared with monobodies of Zhang et al. 2021
T2 construct: purchased Abcam
T2 sequence (P27797 18-417): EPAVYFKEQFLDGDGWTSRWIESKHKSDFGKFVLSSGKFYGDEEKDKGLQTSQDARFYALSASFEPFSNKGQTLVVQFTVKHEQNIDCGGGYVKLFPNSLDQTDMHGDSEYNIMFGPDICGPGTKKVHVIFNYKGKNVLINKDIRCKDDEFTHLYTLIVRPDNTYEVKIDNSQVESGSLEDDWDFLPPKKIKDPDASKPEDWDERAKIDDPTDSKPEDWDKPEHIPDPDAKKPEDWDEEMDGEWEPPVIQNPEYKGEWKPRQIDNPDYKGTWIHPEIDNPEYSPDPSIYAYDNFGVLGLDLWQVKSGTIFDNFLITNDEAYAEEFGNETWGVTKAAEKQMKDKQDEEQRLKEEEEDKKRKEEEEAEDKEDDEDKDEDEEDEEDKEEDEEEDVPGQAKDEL
Experimental: The affinity of the recombinant protein for CRT was measured by enzyme-linked immunosorbent analysis (ELISA) (J. D. Beatty, et al., Journal of immunological methods 100(1-2), 173-179, 1987). In brief, 100 μL of PASylated CRT-targeted L-ASNases coated onto 96-well microplates (0-10 μM/well) overnight at 4° C. Unbound proteins were removed by aspiration from the wells and 100 μL of 10 μM rCRT proteins were added to each well and incubated for 2 h at room temperature. After rCRTs were removed, rabbit anti-CRT antibodies (diluted to 1:500) were added to each well and incubated for 2 h at room temperature. The antibodies were removed by aspiration, and the wells were washed five times with T-PBS. Then, biotin-conjugated anti-rabbit secondary antibodies (diluted to 1:1000) were added and incubated for 1 h. After washing with T-PBS, 100 μL of avidin-HRP (diluted to 1:250) was added to each well and incubated for 30 minutes at room temperature. After aspiration and washing five times, 100 μL of 1×3,3′,5,5′-tetramethylbenzidine (TMB) buffer (Thermo Fisher Scientific, USA) was added to each well to form a […] reaction product. After 15 minutes, 50 μL of 0.5 M H2SO4 solution was added to each well to stop the chromogenic reaction. The amount of colorimetric product was evaluated as the optical density value at 450 nm (OD450) by a SpectraMax M2 microtiter plate reader (Molecular Devices, USA).

[3] = tested on: MC-38 tumor; assay: In vivo anti-cancer efficacy in MC-38 tumor-bearing mice; set-up: species or system C57BL/6 mice; conditions: summary statement
Experimental: CT-26 and MC-38 tumor cells (106 in 100 μL PBS) were implanted subcutaneously into the right flanks of 6-week-old BALB/c and C57BL/6 female mice (Orient company, Korea), respectively. When the tumors reached about 100 mm^3, the tumor-bearing mice were injected intraperitoneally with anticancer agents (15 mg/kg GEM, 10 mg/kg DOX or 2 mg/kg MTX) three times every 2 days. Simultaneously, the mice were injected intravenously with the PASylated recombinant proteins of the present invention five times every 2 days. The length (L), width (W), and height (H) of each tumor were recorded every 3 days using a digital caliper, and the tumor volume (mm3) was calculated using the following formula (L×H×W)/2. Mice were euthanized when tumors were ˜1,500 mm^3 and all animal experiments were performed in accordance with the general principles and procedures outlined in the National Institutes of Health Guidelines, and all protocols were approved by the Chonnam National University Animal Care and Use Committee (permit number: HCRL 16-001).

[4] = In vivo pharmacokinetic analysis; set-up: species or system BALB/c mice; conditions: 10 IU intravenous, mouse serum
Experimental: Six-week-old female BALB/c mice (Orient Company, Korea) were randomly assigned to different treatment groups (n=3) and intravenously injected with 10 IU of PASylated recombinant protein. Then, blood samples were taken from the eyes at the specified time (0-52 h) and left at 4° C. for 40 min. After centrifugation at 12,000 rpm for 20 min, the serum fraction was obtained and stored at −80° C. before further analysis. PASylated recombinant protein in serum was assessed using the ELISA method described above. The amount of serum recombinant protein was converted to enzyme activity.

[5] = MC-38 cells treated with DOX or MTX

Molecule	immunofluorescence staining, binding to cells [1, 5]	immunofluorescence staining, binding to cells ([1]; MC-38 cells treated with GEM)	Kd [2] [nM]	affinity for CRT relative to single CRT3/CRT4 monobody [2]	tumor growth in mice treated with ICD-inducing drugs [3]	half-life [4] [h]
B1	only bound	not	2.3 ± 0.166	four times higher	significantly inhibiting tumor growth	
B2	only bound	not	2.07 ± 0.173	four times higher	significantly inhibiting tumor growth	9.34 ± 0.91
